For data set [1], the system named is HeLa Kyoto. As to the kind of experiment: melting temperature (median over replicates), in situ; higher = more thermally stable.
Data set [2] relates to HeLa Kyoto. Kind of data set: thermal stability score vs G1/S (z-score of summed log2 fold changes over temperatures); higher = more thermally stable than in G1/S.
Data set [3] deals with HeLa Kyoto. Kind of data set: solubility in G1/S (NP-40 vs SDS abundance) (log2 ratio); higher = more soluble. The following applies: cell cycle stage: G1/S.
Data set [4] deals with HeLa Kyoto. Kind of data set: solubility change mitosis vs G1/S (difference of NP-40 vs SDS log2 ratios) (log2 ratio difference); higher = more soluble in mitosis.
The mark [5] stands for this setting: cell cycle stage: early G1 (4.5 h after nocodazole release).
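Wherever melting temperature (median over replicates), in situ is given: HeLa Kyoto cells synchronized by double thymidine or nocodazole block, proteins quantified by TMT10plex mass spectrometry, three independent biological replicates.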
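Wherever solubility change mitosis vs G1/S (difference of NP-40 vs SDS log2 ratios) is given: synchronized HeLa Kyoto cells (double thymidine block for G1/S, nocodazole release for mitosis), protein amounts in NP-40 versus SDS lysates quantified by mass spectrometry, three biological replicates.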
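Wherever solubility in G1/S (NP-40 vs SDS abundance) is given: HeLa Kyoto cells arrested at G1/S by double thymidine block, proteins quantified by TMT10plex mass spectrometry in mild NP-40 versus SDS extracts, three biological replicates.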
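Wherever thermal stability score vs G1/S (z-score of summed log2 fold changes over temperatures) is given: synchronized HeLa Kyoto cells, proteins quantified by TMT10plex mass spectrometry, three biological replicates, mitosis taken 0.5 h after nocodazole release, G1/S directly after double thymidine block.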

For the sequence “MIAHKQKKTKKKRAWASGQLSTDITTSEMGLKSLSSNSIFDPDYIKELVNDIRKFSHMLLYLKEAIFSDCFKEVIHIRLEELLRVLKSIMNKHQNLNSVDLQNAAEMLTAKVKAVNFTEVNEENKNDLFQEVFSSIETLAFTFGNILTNFLMGDVGNDSLLRLPVSRETKSFENVSVESVDSSSEKGNFSPLELDNVLLKNTDSIELALSYAKTWSKYTKNIVSWVEKKLNLELESTRNMVKLAEATRTNIGIQEFMPLQSLFTNALLNDIESSHLLQQTIAALQANKFVQPLLGRKNEMEKQRKEIKELWKQEQNKMLEAENALKKAKLLCMQRQDEYEKAKSSMFRAEEEHLSSSGGLAKNLNKQLEKKRRLEEEALQKVEEANELYKVCVTNVEERRNDLENTKREILAQLRTLVFQCDLTLKAVTVNLFHMQHLQAASLADSLQSLCDSAKLYDPGQEYSEFVKATNSTEEEKVDGNVNKHLNSSQPSGFGPANSLEDVVRLPDSSNKIEEDRCSNSADITGPSFIRSWTFGMFSDSESTGGSSESRSLDSESISPGDFHRKLPRTPSSGTMSSADDLDEREPPSPSETGPNSLGTFKKTLMSKAALTHKFRKLRSPTKCRDCEGIVVFQGVECEECLLVCHRKCLENLVIICGHQKLPGKIHLFGAEFTQVAKKEPDGIPFILKICASEIENRALCLQGIYRVCGNKIKTEKLCQALENGMHLVDISEFSSHDICDVLKLYLRQLPEPFILFRLYKEFIDLAKEIQHVNEEQETKKNSLEDKKWPNMCIEINRILLKSKDLLRQLPASNFNSLHFLIVHLKRVVDHAEENKMNSKNLGVIFGPSLIRPRPTTAPITISSLAEYSNQARLVEFLITYSQKIFDGSLQPQDVMCSIGVVDQGCFPKPLLSPEERDIERSMKSLFFSSKEDIHTSESESKIFERATSFEESERKQNALGKCDACLSDKAQLLLDQEAESASQKIEDGKTPKPLSLKSDRSTNNVERHTPRTKIRPVSLPVDRLLLASPPNERNGRNMGNVNLDKFCKNPAFEGVNRKDAATTVCSKFNGFDQQTLQKIQDKQYEQNSLTAKTTMIMPSALQEKGVTTSLQISGDHSINATQPSKPYAEPVRSVREASERRSSDSYPLAPVRAPRTLQPQHWTTFYKPHAPIISIRGNEEKPASPSAAVPPGTDHDPHGLVVKSMPDPDKASACPGQATGQPKEDSEELGLPDVNPMCQRPRLKRMQQFEDLEGEIPQFV [ARHGAP29]”, the melting temperature is 50.5 °C in the data set with HeLa Kyoto [1] (cell cycle stage: G1/S) and 51.1 °C in the data set on HeLa Kyoto [1] (cell cycle stage: mitosis). Moreover, the thermal stability score was 1 in the data set on HeLa Kyoto [2] (setting [5]) and 1.36 with HeLa Kyoto [2] (cell cycle stage: mitosis). The “solubility in G1/S (log2)” value with HeLa Kyoto [3] was -0.185. Moreover, the “solubility change mitosis (log2)” value in the data set with HeLa Kyoto [4] is -0.0634.
Consider “MIASHLLAYFFTELNHDQVQKVDQYLYHMRLSDETLLEISKRFRKEMEKGLGATTHPTAAVKMLPTFVRSTPDGTEHGEFLALDLGGTNFRVLWVKVTDNGLQKVEMENQIYAIPEDIMRGSGTQLFDHIAECLANFMDKLQIKDKKLPLGFTFSFPCHQTKLDESFLVSWTKGFKSSGVEGRDVVALIRKAIQRRGDFDIDIVAVVNDTVGTMMTCGYDDHNCEIGLIVGTGSNACYMEEMRHIDMVEGDEGRMCINMEWGAFGDDGSLNDIRTEFDQEIDMGSLNPGKQLFEKMISGMYMGELVRLILVKMAKEELLFGGKLSPELLNTGRFETKDISDIEGEKDGIRKAREVLMRLGLDPTQEDCVATHRICQIVSTRSASLCAATLAAVLQRIKENKGEERLRSTIGVDGSVYKKHPHFAKRLHKTVRRLVPGCDVRFLRSEDGSGKGAAMVTAVAYRLADQHRARQKTLEHLQLSHDQLLEVKRRMKVEMERGLSKETHASAPVKMLPTYVCATPDGTEKGDFLALDLGGTNFRVLLVRVRNGKWGGVEMHNKIYAIPQEVMHGTGDELFDHIVQCIADFLEYMGMKGVSLPLGFTFSFPCQQNSLDESILLKWTKGFKASGCEGEDVVTLLKEAIHRREEFDLDVVAVVNDTVGTMMTCGFEDPHCEVGLIVGTGSNACYMEEMRNVELVEGEEGRMCVNMEWGAFGDNGCLDDFRTEFDVAVDELSLNPGKQRFEKMISGMYLGEIVRNILIDFTKRGLLFRGRISERLKTRGIFETKFLSQIESDCLALLQVRAILQHLGLESTCDDSIIVKEVCTVVARRAAQLCGAGMAAVVDRIRENRGLDALKVTVGVDGTLYKLHPHFAKVMHETVKDLAPKCDVSFLQSEDGSGKGAALITAVACRIREAGQR [HK2]”, for which the melting temperature came to 48.2 °C with HeLa Kyoto [1] (cell cycle stage: G1/S) and 49.1 °C in the data set with HeLa Kyoto [1] (cell cycle stage: mitosis). Moreover, the values for the thermal stability score in the data set on HeLa Kyoto [2] (setting [5]) and with HeLa Kyoto [2] (cell cycle stage: mitosis) were 1.07 and 2.33, respectively. In the data set with HeLa Kyoto [3], the “solubility in G1/S (log2)” value was -0.166. Moreover, in the data set with HeLa Kyoto [4], the “solubility change mitosis (log2)” value was -0.148.
For the sequence “MICLVLTIFANLFPAACTGAHERTFLAVKPDGVQRRLVGEIVRRFERKGFKLVALKLVQASEELLREHYAELRERPFYGRLVKYMASGPVVAMVWQGLDVVRTSRALIGATNPADAPPGTIRGDFCIEVGKNLIHGSDSVESARREIALWFRADELLCWEDSAGHWLYE [NME3]”, the melting temperature in the data set on HeLa Kyoto [1] (cell cycle stage: G1/S) amounted to 55.7 °C; in the data set with HeLa Kyoto [1] (cell cycle stage: mitosis), 56.8 °C. Besides, the values for the thermal stability score with HeLa Kyoto [2] (setting [5]) and with HeLa Kyoto [2] (cell cycle stage: mitosis) were -1.81 and -2.22, respectively. Also, in the data set on HeLa Kyoto [3], the “solubility in G1/S (log2)” value is -0.213. Moreover, in the data set with HeLa Kyoto [4], the “solubility change mitosis (log2)” value is -0.0854.
In the case of “MIDSSKKQQQGFPEILTAGDFEPLKEKECLEGSNQKSLKEVLQLRLQQRRTREQLVDQGIMPPLKSPAAFHEQIKSLERARTENFLKHKIRSRPDRSELVRMHILEETFAEPSLQATQMKLKRARLADDLNEKIAQRPGPMELVEKNILPVDSSVKEAIIGVGKEDYPHTQGDFSFDEDSSDALSPDQPASQESQGSAASPSEPKVSESPSPVTTNTPAQFASVSPTVPEFLKTPPTADQPPPRPAAPVLPTNTVSSAKPGPALVKQSHPKNPNDKHRSKKCKDPKPRVKKLKYHQYIPPDQKGEKNEPQMDSNYARLLQQQQLFLQLQILSQQKQHYNYQTILPAPFKPLNDKNSNSGNSALNNATPNTPRQNTSTPVRKPGPLPSSLDDLKVSELKTELKLRGLPVSGTKPDLIERLKPYQEVNSSGLAAGGIVAVSSSAIVTSNPEVTVALPVTTLHNTVTSSVSTLKAELPPTGTSNATRVENVHSPLPISPSPSEQSSLSTDDTNMADTFTEIMTMMSPSQFLSSSPLRMTNNEDSLSPTSSTLSNLELDAAEKDRKLQEKEKQIEELKRKLEQEQKLVEVLKMQLEVEKRGQQQRPLEAQPSAPGHSVKSDQKHGSLGSSIKDEASLPDCSSSRQPIPVASHAVGQPVSTGGQTLVAKKAVVIKQEVPVGQAEQQSVVSQFYVSSQGQPPPAVVAQPQALLTTQTAQLLLPVSIQGSSVTSVQLPVGSLKLQTSPQAGMQTQPQIATAAQIPTAALASGLAPTVPQTQDTFPQHVLSQPQQVRKVFTNSASSNTVLPYQRHPAPAVQQPFINKASNSVLQSRNAPLPSLQNGPNTPNKPSSPPPPQQFVVQHSLFGSPVAKTKDPPRYEEAIKQTRSTQAPLPEISNAHSQQMDDLFDILIKSGEISLPIKEEPSPISKMRPVTASITTMPVNTVVSRPPPQVQMAPPVSLEPMGSLSASLENQLEAFLDGTLPSANEIPPLQSSSEDREPFSLIEDLQNDLLSHSGMLDHSHSPMETSETQFAAGTPCLSLDLSDSNLDNMEWLDITMPNSSSGLTPLSTTAPSMFSADFLDPQDLPLPWD [MKL2]”, the figures for the melting temperature in the data set with HeLa Kyoto [1] (cell cycle stage: G1/S) and in the data set with HeLa Kyoto [1] (cell cycle stage: mitosis) were 52.5 °C and 53 °C, respectively. The thermal stability score in the data set with HeLa Kyoto [2] (setting [5]) stood at 1.45; with HeLa Kyoto [2] (cell cycle stage: mitosis) it was 3.81. Also, the “solubility in G1/S (log2)” value in the data set with HeLa Kyoto [3] amounted to 0.208. In the data set with HeLa Kyoto [4], the “solubility change mitosis (log2)” value is -0.304.

These data come from the supplement of paper PMC5998384.
